Assay results reported in article PMC6689063.

Target: T1, AztC from Paracoccus denitrificans (WT PdAztC), solute binding protein of the AztABC zinc transporter (Paracoccus denitrificans PD1222) (UniProt A1B2F3)
T1 sequence: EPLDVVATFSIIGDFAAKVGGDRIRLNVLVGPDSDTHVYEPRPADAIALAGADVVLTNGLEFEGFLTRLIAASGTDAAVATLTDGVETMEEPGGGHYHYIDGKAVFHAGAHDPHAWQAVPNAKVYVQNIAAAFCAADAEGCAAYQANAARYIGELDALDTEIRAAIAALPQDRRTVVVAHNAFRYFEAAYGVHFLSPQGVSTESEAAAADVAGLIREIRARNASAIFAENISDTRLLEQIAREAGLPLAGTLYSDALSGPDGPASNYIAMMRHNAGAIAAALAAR

zinc transferred to AztC after incubation of 100 μM each protein with 1 mM EDTA, anion exchange chromatography and zinc quantitation by ICP-OES (equivalent of zinc): 1
B1: ΔS1 PdAztD (H124A/H167A/H218A) (natural protein)
chain: QDHDHDHEDVTLYRVFVGDHEKGQVTAFDLAEPDHRWTFPTTGQVKLYSVAGGAVVAAVQSDADTVQFIRSGISFHDHGDHRDIEVGDPAAIDASLTGPRPFALVEHDGKVVLNYDQGGYAEILDGHALAEGKAEPGRFPQARAHAGFVAPLGGNWLSTVASDEKVEGDASVPRLGLQAFDAEGNPAGNLATCTGIAGEAFSGAYLAAGCKEGVLTVKAGANGSEYKLLPYPADLPQGVTTGTLLGSTGIQVFLGNYGPDGLVVIDPVDEPHYRYIKLPFRRVDFALDPAKPSTGYVLTEDGSLHRIDLLKAEIVASAKVTEPYSMDGHWNDPRPRIAMAGDEIVVTDPNAGLVRRIATEDLSERGTVPVEGKPYNIAVTGGSGVTH
